Measurements published in US7037674.

Test system: cytochrome c

cytochrome P-450 reductase purified from P. somniferum cell suspension cultures, sequence (chain, as listed by the source): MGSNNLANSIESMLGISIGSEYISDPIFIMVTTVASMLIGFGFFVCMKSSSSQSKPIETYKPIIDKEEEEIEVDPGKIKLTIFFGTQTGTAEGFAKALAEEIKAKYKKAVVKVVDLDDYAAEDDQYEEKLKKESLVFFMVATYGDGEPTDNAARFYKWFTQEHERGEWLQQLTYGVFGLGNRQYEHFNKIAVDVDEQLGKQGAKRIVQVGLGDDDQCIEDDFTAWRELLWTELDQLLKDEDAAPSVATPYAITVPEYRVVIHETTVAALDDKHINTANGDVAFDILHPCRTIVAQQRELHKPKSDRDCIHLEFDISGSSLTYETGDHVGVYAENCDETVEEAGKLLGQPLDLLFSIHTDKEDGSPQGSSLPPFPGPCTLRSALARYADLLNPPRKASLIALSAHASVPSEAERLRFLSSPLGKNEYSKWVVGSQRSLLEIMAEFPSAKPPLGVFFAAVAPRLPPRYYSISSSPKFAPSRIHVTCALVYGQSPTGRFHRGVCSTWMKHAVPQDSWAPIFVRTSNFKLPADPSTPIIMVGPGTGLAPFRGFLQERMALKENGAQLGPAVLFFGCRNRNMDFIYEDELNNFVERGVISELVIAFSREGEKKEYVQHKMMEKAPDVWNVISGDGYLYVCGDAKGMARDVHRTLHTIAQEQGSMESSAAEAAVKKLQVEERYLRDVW

cytochrome P-450 reductase purified from P. somniferum cell suspension cultures
Km (cytochrome c reduction, enzyme activity): The Km value for cytochrome c was 8.3 µM
